{"source": "IntAct's records for PubMed 36402845", "parents": {"B1": {"name": "Exostosin-2 (Homo sapiens), Q93063 (parent)", "chain": "MCASVKYNIRGPALIPRMKTKHRIYYITLFSIVLLGLIATGMFQFWPHSIESSNDWNVEKRSIRDVPVVRLPADSPIPERGDLSCRMHTCFDVYRCGFNPKNKIKVYIYALKKYVDDFGVSVSNTISREYNELLMAISDSDYYTDDINRACLFVPSIDVLNQNTLRIKETAQAMAQLSRWDRGTNHLLFNMLPGGPPDYNTALDVPRDRALLAGGGFSTWTYRQGYDVSIPVYSPLSAEVDLPEKGPGPRQYFLLSSQVGLHPEYREDLEALQVKHGESVLVLDKCTNLSEGVLSVRKRCHKHQVFDYPQVLQEATFCVVLRGARLGQAVLSDVLQAGCVPVVIADSYILPFSEVLDWKRASVVVPEEKMSDVYSILQSIPQRQIEEMQRQARWFWEAYFQSIKAIALATLQIINDRIYPYAAISYEEWNDPPAVKWGSVSNPLFLPLIPPQSQGFTAIVLTYDRVESLFRVITEVSKVPSLSKLLVVWNNQNKNPPEDSLWPKIRVPLKVVRTAENKLSNRFFPYDEIETEAVLAIDDDIIMLTSDELQFGYEVWREFPDRLVGYPGRLHLWDHEMNKWKYESEWTNEVSMVLTGAAFYHKYFNYLYTYKMPGDIKNWVDAHMNCEDIAMNFLVANVTGKAVIKVTPRKKFKCPECTAIDGLSLDQTHMVERSECINKFASVFGTMPLKVVEHRADPVLYKDDFPEKLKSFPNIGSL", "partner": "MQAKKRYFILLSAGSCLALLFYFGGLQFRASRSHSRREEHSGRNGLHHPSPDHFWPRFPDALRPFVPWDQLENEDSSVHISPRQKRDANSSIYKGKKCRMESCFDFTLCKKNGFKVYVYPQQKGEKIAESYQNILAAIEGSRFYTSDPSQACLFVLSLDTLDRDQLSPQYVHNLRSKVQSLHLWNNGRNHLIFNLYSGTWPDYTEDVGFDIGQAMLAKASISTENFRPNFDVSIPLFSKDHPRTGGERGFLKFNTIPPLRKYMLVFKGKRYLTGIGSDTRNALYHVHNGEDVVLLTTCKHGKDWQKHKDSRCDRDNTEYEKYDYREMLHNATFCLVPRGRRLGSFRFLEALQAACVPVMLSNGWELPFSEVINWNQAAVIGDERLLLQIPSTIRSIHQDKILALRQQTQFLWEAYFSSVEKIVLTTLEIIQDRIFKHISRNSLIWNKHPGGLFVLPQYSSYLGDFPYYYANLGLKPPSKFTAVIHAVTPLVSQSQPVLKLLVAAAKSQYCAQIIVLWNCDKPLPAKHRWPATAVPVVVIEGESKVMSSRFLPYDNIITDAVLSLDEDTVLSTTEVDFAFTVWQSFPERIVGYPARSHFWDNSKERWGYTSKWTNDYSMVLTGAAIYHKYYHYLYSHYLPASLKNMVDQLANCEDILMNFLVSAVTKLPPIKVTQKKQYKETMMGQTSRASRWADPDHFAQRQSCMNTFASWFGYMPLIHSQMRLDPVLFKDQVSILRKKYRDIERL"}, "B2": {"name": "Exostosin-1 (Homo sapiens), Q16394 (parent)", "chain": "B1 partner", "partner": "B1 chain"}}, "data": [{"variants_of": "B1", "settings": "with ext1_human EXT1, Q16394", "values": [{"variant": "R266A", "effect of a mutation on the interaction": "with no effect"}, {"variant": "D538N;D540N", "effect of a mutation on the interaction": "with no effect"}]}, {"variants_of": "B2", "settings": "with ext2_human EXT2, Q93063", "values": [{"variant": "D162N;D164N", "effect of a mutation on the interaction": "with no effect"}, {"variant": "R280A", "effect of a mutation on the interaction": "with no effect"}, {"variant": "R346A", "effect of a mutation on the interaction": "with no effect"}, {"variant": "D565N;D567N", "effect of a mutation on the interaction": "decreasing interaction strength"}]}]}
